Measured values: US20230132604A1 (KEYMED BIOSCIENCES, published 2023)

T1: recombinant human CD38 extracellular region protein (Val 43-Ile 300) with N-terminal 6×his tag (human, UniProt P28907 43-300)
T1 construct: range 43-300; Expressed in HEK293.6E cells and purified on a nickel chelate column; also called human CD38 recombinant protein; human CD38 protein
T1 sequence: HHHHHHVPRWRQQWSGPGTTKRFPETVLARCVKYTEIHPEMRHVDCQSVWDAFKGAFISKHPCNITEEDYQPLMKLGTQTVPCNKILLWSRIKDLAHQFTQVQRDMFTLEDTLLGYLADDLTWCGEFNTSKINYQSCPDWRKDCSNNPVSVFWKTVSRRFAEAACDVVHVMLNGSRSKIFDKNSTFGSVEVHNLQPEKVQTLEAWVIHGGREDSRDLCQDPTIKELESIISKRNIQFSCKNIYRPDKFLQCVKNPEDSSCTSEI

T2: human CD38 expressed on tumor cells (Daudi, NALM-6, Ramos.2G6.4C10, TALL-1) (human, UniProt P28907 1-300)
T2 construct: whole, on cells; Endogenous CD38 on human tumor cell lines; also called CD38 molecules expressed on Daudi; CD38 on Daudi cells
T2 sequence (looked up): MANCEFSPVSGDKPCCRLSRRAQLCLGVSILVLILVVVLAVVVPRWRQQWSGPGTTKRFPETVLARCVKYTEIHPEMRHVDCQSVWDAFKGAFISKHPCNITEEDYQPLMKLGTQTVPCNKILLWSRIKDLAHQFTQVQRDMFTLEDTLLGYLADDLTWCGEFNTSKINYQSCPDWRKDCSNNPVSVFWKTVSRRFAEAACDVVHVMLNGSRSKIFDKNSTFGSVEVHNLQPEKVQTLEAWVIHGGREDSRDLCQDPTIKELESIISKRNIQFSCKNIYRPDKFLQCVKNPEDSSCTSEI


How the values were obtained:
[1] = biological target: T1, recombinant human CD38 extracellular …; assay: ELISA, plate coated with human CD38 protein, detection with HRP goat anti-human IgG Fc, OD450
[2] = biological target: T2, human CD38 expressed on tumor cells …; assay: flow cytometry (FACS) on Daudi cells
Description: (§1) Different cells in logarithmic phase were blocked with 3% BSA for 30 minutes, and then plated into a U-shaped 96-well plate at 5×10⁴ cells/100 μL; centrifugation was conducted at 1100 rpm for 3 minutes, the supernatant was discarded, the cells were patted and loosed gently, 50 μL of serially diluted antibody (diluted 3-fold in 5 series, with an initial concentration of 30 μg/mL) was added to each well, and the mixture was incubated at 4° C. for 1 hour. After the incubation, 180 μL 0.5% BSA was added to each well, wash 3 times, 30 μL/well of secondary antibody Alexa Fluro 647 anti-human IgG (Jackson ImmunoResearch, Cat: 109-606-170) was added, and the mixture was incubated at 4° C. for 45 minutes. After the incubation, each well was washed 3 times with 180 μL 0.5% BSA, and finally resuspended in 50 μL PBS each well for iQue (Intellicyt, USA) assay.

[3] = biological target: T2, human CD38 expressed on tumor cells …; assay: flow cytometry (FACS) on Ramos.2G6.4C10 cells
Description: as §1

[4] = biological target: T1, recombinant human CD38 extracellular …; assay: SPR (Biacore), antibody captured on protein A chip, human CD38 recombinant protein as analyte, Langmuir 1:1 fit
[5] = biological target: T1, recombinant human CD38 extracellular …; assay: ELISA, plate coated with human CD38 protein, anti-human IgG Fc-HRP detection
Description: A 96-well plate was coated with human CD38 protein and incubated overnight at 4° C. The solution in wells were then discarded, washed 3 times with wash buffer, and blocked by the addition of 2% milk in PBS for 60 minutes. After washing 3 times with washing buffer, 100 μL of antibodies at different dilutions were added to each well, and the mixture was incubated at 37° C. for 1 hour; after washing 3 times with washing buffer, HPR-labeled goat anti-human IgG Fc was diluted at 1:5000 with 0.5% BSA, and the mixture was incubated at room temperature for 1 hour; after washing 3 times with washing buffer, 100 μL of TMB substrate solution was added for color development; after reaction at 37° C. for 10 minutes, the reaction was terminated with 50 μL of 2M sulfuric acid solution and the absorbance was read at 450 nm.

[6] = biological target: T2, human CD38 expressed on tumor cells …; assay: flow cytometry (FACS) on NALM-6 cells
Description: as §1

[7] = biological target: T2, human CD38 expressed on tumor cells …; assay: flow cytometry (FACS) on TALL-1 cells
Description: as §1

Row | EC50 (read off the curve) [1] | EC50 [2] | EC50 [3] | Kd [4] | koff [4] | kon [4] | EC50 [5] | EC50 [6] | EC50 [7] | Binder
1 | ~100 pM | – | – | – | – | – | – | – | – | chimeric anti-human CD38 antibody 48H1-B11 (antibody, V domains shown, also called chimeric antibody 48H1-B11; mAb48H1-B11 (murine parent)) VH: EVQLKQSGPGLMQPSQSLSITCTVSGFSLTSYGIHWLRQSPGKGLEWLGVIWRGGSTDYNAAFMSRLSITKDNSKSQVFFKMNSLQGDDTAIYYCAKGKVTTGFYFDFWGQGTTLTVSS VL: DIQMTQSSSSFSVSLGDRVTITCKASEDIYNRLVWYQQKPGNAPGLLISGVTSLETGVPSRFSGSGSGKDYTLTITSLQTEDVATYYCQQYWSTPYTFGGGTKLEIK
2 | – | 440 pM | 420 pM | 278 pM | 0.000556 s⁻¹ | 2e+06 M⁻¹ s⁻¹ | 510 pM | 370 pM | 410 pM | humanized CD38 antibody Ab031 (h48H1-VHv7 / h48H1-VKv7) (antibody, V domains shown, also called CM313-1) VH: QVQLQESGPGLVKPSETLSLTCTVSGFSLTSYGIHWIRQPPGKGLEWIGVIWRGGSTDYNPSLKSRVTISKDNSKSQVSLKLSSVTAADTAVYYCAKGKVTTGFYFDFWGQGTLVTVSS VL: EIVMTQSPPTLSLSPGERVTLSCRASEDIYNRLVWYQQKPGQAPRLLISGVTSLETSIPARFSGSGSGTDYTLTISSLQPEDFAVYYCQQYWSTPYTFGQGTKVEIK
3 | – | 540 pM | 580 pM | 1430 pM | 0.00532 s⁻¹ | 3.71e+06 M⁻¹ s⁻¹ | 4240 pM | 490 pM | 340 pM | humanized CD38 antibody Ab033 (h48H1-VHv8 / h48H1-VKv7) (antibody, V domains shown, also called CM313-2) VH: QVQLQESGPGLVKPSETLSLTCTVSGFSLTSYGIHWLRQPPGKGLEWIGVIWRGGSTDYNPSLKSRVTISKDTSKSQVSLKLSSVTAADTAVYYCAKGKVTTGFYFDFWGQGTLVTVSS VL: EIVMTQSPPTLSLSPGERVTLSCRASEDIYNRLVWYQQKPGQAPRLLISGVTSLETSIPARFSGSGSGTDYTLTISSLQPEDFAVYYCQQYWSTPYTFGQGTKVEIK
